Test results taken from patent publication US4614714A.

Substrate: N[C@@H](CC(=O)O)C(=O)O
Assay: purified protein, by the assay type
Conditions: other: pH 7.4, 30.0 °C
Description: The concentration of each substrate was 10 mM, and the reactions were carried out at pH 7.4 (0.1 M potassium phosphate buffer) and pH 6.0 (0.1 M acetate buffer).
That is, 1 ml of 0.1 M potassium phosphate buffer (pH 7.4) containing 10 mM sodium L-glutamate was charged into an oxygen electrode cell and 10 μl of an enzyme solution was added thereto to measure the oxygen consumption rate. One unit of enzyme was determined as the amount of enzyme which consumes 1μ mol of oxygen per minute at 30° C. in the absence of catalase (unit: hereinafter abbreviated as "U").

B1: novel L-glutamic acid oxidase (Streptomyces sp.) (protein)
chain 1: ANEMTYEQLARELLLVGPAPTNEDLKLRYLDVLIDNGLNPPGPPKRILIVGAGIAGLVAGDLLTRAGHDVTILEANANRVGGRIKTFHAKKGEPSPFADPAQYAEAGAMRLPSFHPLTLALIDKLGLKRRLFFNVDIDPQTGNQDAPVPPVFYKSFKDGKTWTNGAPSPEFKEPDKRNHTWIRTNREQVRRAQYATDPSSINEGFHLTGCETRLTVSDMVNQALEPVRDYYSVKQDDGTRVNKPFKEWLAGWADVVRDFDGYSMGRFLREYAEFSDEAVEAIGTIENMTSRLHLAFFHSFLGRSDIDPRATYWEIEGGSRMLPETLAKDLRDQIVMGQRMVRLEYYDPGRDGHHGELTGPGGPAVAIQTVPEGEPY
chain 2: AATQTWTGDLAIVTIPFSSLRFVKVTPPFSYKKRRAVIETHYDQATKVLLEFSRRWWEFTEADWKRELDAIAPGLYDYYQQWGEDDAEAALALPQSVRNLPTGLLGAHPSVDESRIGEEQVEYYRNSELR
chain 3: GGVRPATNAYGGGSTTDNPNRFMYYPSHPVPGTQGGVVLAAYSWSDDAARWDSFDDAERYGYALENLQSVHGRRIEVFYTGAGQTQSWLRDPYACGEAAVYTPHQMTAFHLDVVRPEGPVYFAGEHVSLKHAWIEGAVETAVRAAIAVNEAPVGDTGVTAAAGRRGAAAATEPMREEALTS
Km: 29 mM
